Where two headings read alike, the source gives them in different places.
T1: human IL-31 (human, UniProt Q6EBC2 24-164, limits assumed)
T1 sequence (looked up): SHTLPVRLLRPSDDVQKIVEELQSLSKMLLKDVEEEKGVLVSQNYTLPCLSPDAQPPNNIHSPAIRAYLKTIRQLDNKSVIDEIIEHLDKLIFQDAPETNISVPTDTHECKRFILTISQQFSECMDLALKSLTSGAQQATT

T2: human IL-31-His (human, UniProt Q6EBC2 24-164)
T2 construct: form captured via anti-His tag antibody in the SPR of the scFvs (sections 1.8 and 2.4); also called hIL-31; not shown: His tag
T2 sequence (looked up): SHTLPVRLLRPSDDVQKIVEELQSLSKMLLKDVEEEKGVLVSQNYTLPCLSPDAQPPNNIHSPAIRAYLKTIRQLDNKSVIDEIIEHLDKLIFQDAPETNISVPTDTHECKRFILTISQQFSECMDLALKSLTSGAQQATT


Key:
human IL-31 [1] = target: T1, human IL-31; assay: cell-based or functional assay
human IL-31 [2] = target: T1, human IL-31; assay: cell-based or functional assay; remark: listed apart in the source
human IL-31 [3] = target: T1, human IL-31; assay: cell-based or functional assay; remark: listed apart in the source
human IL-31 [4] = target: T1, human IL-31; assay: cell-based or functional assay; remark: listed apart in the source
human IL-31 [5] = target: T1, human IL-31; assay: cell-based or functional assay; remark: listed apart in the source
human IL-31 [6] = target: T1, human IL-31; assay: cell-based or functional assay; remark: listed apart in the source
human IL-31 [7] = target: T1, human IL-31; assay: competitive ELISA: IL-31RA coated, biotinylated IL-31 preincubated with the antibody, bound IL-31 detected with streptavidin-HRP; blocked interaction IL-31/IL-31RA
human IL-31 [8] = target: T1, human IL-31; assay: as above; remark: listed apart in the source
human IL-31 [9] = target: T1, human IL-31; assay: as above; remark: listed apart in the source
human IL-31 [10] = target: T1, human IL-31; assay: cell-based or functional assay; remark: listed apart in the source
human IL-31 [11] = target: T1, human IL-31; assay: cell-based or functional assay; remark: listed apart in the source
human IL-31 [12] = target: T1, human IL-31; assay: competitive ELISA: IL-31RA coated, biotinylated IL-31 preincubated with scFv
Description: For this purpose, IL-31RA was coated on the ELISA plate.
Potency of the two humanized scFvs was further determined using a competitive ELISA.

human IL-31-His [13] = target: T2, human IL-31-His; assay: SPR (Biacore T200), human IL-31-His captured via anti-His antibody, scFv as analyte
Method: (§1) After each analyte injection cycle the sensor chip was regenerated and new antigen was captured. The scFvs were measured using a dose response multi-cycle kinetic assay in a high-throughput mode with two concentrations (30 and 10 nM) diluted in running buffer. Obtained sensorgrams were fitted using a 1:1 binding model.

human IL-31-His [14] = target: T2, human IL-31-His; assay: as above; remark: listed apart in the source
Method: as §1
(§2) The scFvs were measured using a dose response multi-cycle kinetic assay in a high-throughput mode with two concentrations (30 and 10 nM) diluted in running buffer. Obtained sensorgrams were fitted using a 1:1 binding model.

cynomolgus IL-31-His [15] = target: T3, cynomolgus IL-31-His (cynomolgus monkey (Macaca fascicularis)); assay: SPR (Biacore T200), cynomolgus IL-31-His captured via anti-His antibody, scFv as analyte
T3 construct: extracellular domain; also called cynomolgus monkey IL-31; cyno IL-31
Method: as §1

cynomolgus IL-31-His [16] = target: T3, cynomolgus IL-31-His; assay: as above; remark: listed apart in the source
Method: as §1, §2

Binder	IC50 [ng/ml], neutralization of hIL-31-induced signaling in IL-31RA/OSMR dimerization assay (human IL-31 [11])	Kd (human IL-31-His [14])	koff (human IL-31-His [14])	kon (human IL-31-His [14])	Kd (cynomolgus IL-31-His [16])	koff (cynomolgus IL-31-His [16])	kon (cynomolgus IL-31-His [16])	also measured
BMS-981164 (antibody, V domains shown) VH: QVQLVQSGAEVKKPGASVKVSCKASGYTLTRYWMQWVRQAPGQGLEWMGAIYPGDGDTRYSQKFQGRVTLTADKSTSTAYMELSSLRSEDTAVYYCAFPDGYYAAPYGMDYWGQGTLVTVSS VL: DIQMTQSPSSLSASVGDRVTITCRASGNIHNYLAWYQQKPGKVPKLLIYNAKTLADGVPSRFSGSRSETQYSLTISSLQPEDVATYYCQHFWSTPWTFGQGTKVEIKR	–	–	–	–	–	–	–	IC50 (read off the curve) (human IL-31 [1]): ~10 ng/mL; IC50 (read off the curve) (human IL-31 [2]): ~8 ng/mL; IC50 (read off the curve) (human IL-31 [3]): ~10 ng/mL; IC50 (read off the curve) (human IL-31 [4]): ~7 ng/mL; IC50 (read off the curve) (human IL-31 [5]): ~10 ng/mL; IC50 (read off the curve) (human IL-31 [6]): ~10 ng/mL; IC50 (read off the curve) (human IL-31 [7]): ~10 ng/mL; IC50 (read off the curve) (human IL-31 [8]): ~10 ng/mL; IC50 (read off the curve) (human IL-31 [9]): ~10 ng/mL
PRO1643 (scFv, scFv (VL-linker-VH), full graft of rabbit clone 50-09-D07; also called 50-09-D07-sc03; 50-09-D07-5c03) scFv: AFQLTQSPSSLSASVGDRVTITCQASQSIDSWLAWYQQKPGKPPKLLIYQASKLASGVPSRFSGSGSGTDYTLTISSLQPEDFATYYCQTYYGGGHIGWGFGTGTKVTVLGGGGGSGGGGSGGGGSGGGGSQSQLVESGGGLVQPGGSLRLSCAASGFSFSANYWICWVRQAPGKGLEWIVCIYIGSRADTYYAPWAKGRFTISKDNSKNTVYLQMNSLRAEDTAVYFCARFSSGIYDLDRFFLWGQGTLVTVSS	8.08 ng/mL	1.13 nM	0.000653 s⁻¹	579000 M⁻¹ s⁻¹	1.17 nM	0.000587 s⁻¹	501000 M⁻¹ s⁻¹	IC50 [ng/ml], neutralization of hIL-31-induced signaling in IL-31RA/OSMR dimerization assay (human IL-31 [10]): 11.1 ng/mL; IC50 (human IL-31 [12]): 4.58 ng/mL; Kd (human IL-31-His [13]): 0.505 nM; koff (human IL-31-His [13]): 0.000447 s⁻¹; kon (human IL-31-His [13]): 884000 M⁻¹ s⁻¹; Kd (cynomolgus IL-31-His [15]): 0.583 nM; koff (cynomolgus IL-31-His [15]): 0.000444 s⁻¹; kon (cynomolgus IL-31-His [15]): 761000 M⁻¹ s⁻¹
PRO1902 (scFv, scFv (VL-linker-VH); variant of PRO1643 with VH Y59S (AHo numbering); also called 50-09-D07-sc06; 50-09-D07-5c06) scFv: AFQLTQSPSSLSASVGDRVTITCQASQSIDSWLAWYQQKPGKPPKLLIYQASKLASGVPSRFSGSGSGTDYTLTISSLQPEDFATYYCQTYYGGGHIGWGFGTGTKVTVLGGGGGSGGGGSGGGGSGGGGSQSQLVESGGGLVQPGGSLRLSCAASGFSFSANYWICWVRQAPGKGLEWIVCISIGSRADTYYAPWAKGRFTISKDNSKNTVYLQMNSLRAEDTAVYFCARFSSGIYDLDRFFLWGQGTLVTVSS	–	2.89 nM	0.00246 s⁻¹	852000 M⁻¹ s⁻¹	–	–	–	–
PRO1903 (scFv, scFv (VL-linker-VH); variant of PRO1643 with VL D32E (AHo numbering); also called 50-09-D07-sc07; 50-09-D07-5c07) scFv: AFQLTQSPSSLSASVGDRVTITCQASQSIESWLAWYQQKPGKPPKLLIYQASKLASGVPSRFSGSGSGTDYTLTISSLQPEDFATYYCQTYYGGGHIGWGFGTGTKVTVLGGGGGSGGGGSGGGGSGGGGSQSQLVESGGGLVQPGGSLRLSCAASGFSFSANYWICWVRQAPGKGLEWIVCIYIGSRADTYYAPWAKGRFTISKDNSKNTVYLQMNSLRAEDTAVYFCARFSSGIYDLDRFFLWGQGTLVTVSS	–	1.22 nM	0.000638 s⁻¹	524000 M⁻¹ s⁻¹	–	–	–	–
PRO1901 (scFv, scFv (VL-linker-VH); variant of PRO1643 with VH L12S, V103T, L144Q (AHo numbering); also called 50-09-D07-sc05) scFv: AFQLTQSPSSLSASVGDRVTITCQASQSIDSWLAWYQQKPGKPPKLLIYQASKLASGVPSRFSGSGSGTDYTLTISSLQPEDFATYYCQTYYGGGHIGWGFGTGTKVTVLGGGGGSGGGGSGGGGSGGGGSQSQLVESGGGSVQPGGSLRLSCAASGFSFSANYWICWVRQAPGKGLEWIVCIYIGSRADTYYAPWAKGRFTISKDNSKNTVYLQMNSLRAEDTATYFCARFSSGIYDLDRFFLWGQGTQVTVSS	–	0.956 nM	0.000565 s⁻¹	591000 M⁻¹ s⁻¹	–	–	–	–
PRO1900 (scFv, scFv (VL-linker-VH); variant of PRO1643 with VH L12R, V103T, L144Q (AHo numbering); also called 50-09-D07-sc04; 50-09-D07-5c04) scFv: AFQLTQSPSSLSASVGDRVTITCQASQSIDSWLAWYQQKPGKPPKLLIYQASKLASGVPSRFSGSGSGTDYTLTISSLQPEDFATYYCQTYYGGGHIGWGFGTGTKVTVLGGGGGSGGGGSGGGGSGGGGSQSQLVESGGGRVQPGGSLRLSCAASGFSFSANYWICWVRQAPGKGLEWIVCIYIGSRADTYYAPWAKGRFTISKDNSKNTVYLQMNSLRAEDTATYFCARFSSGIYDLDRFFLWGQGTQVTVSS	8.21 ng/mL	0.907 nM	0.000599 s⁻¹	661000 M⁻¹ s⁻¹	1.07 nM	0.000594 s⁻¹	554000 M⁻¹ s⁻¹	–
